Consider one molecule from patent publication US20230183665A1, “THERMOSTABLE GLUCOCEREBROSIDASE” (TEIKYO UNIVERSITY, priority 2020, published 2023).

Data set [1] is described as follows: Thermostability: relative residual glucocerebrosidase activity after incubation at pH 5 and pH 7 (Examples 6, 13). Format: physicochemical. The following applies: 37° C.; pH 5 for 6 to 106 hours, pH 7 for 4 to 48 hours; FIGS. 1 and 2. The protocol: The glucocerebrosidase activity of the fraction was measured as follows: a predetermined amount of sample was added to a 50 mM acetate buffer solution (pH 5.5) containing 100 μM glucosylceramide (cerebroside B), 0.1% Tween 20, and 0.05% sodium cholate, and incubated at 37° C. for 15 minutes. Subsequently, a 4-fold amount of ethanol was added to the obtained reaction solution, mixed therewith, and then centrifuged at 15000 rpm for 20 minutes. The centrifuged supernatant was subjected to high-performance liquid chromatography analysis. […] The amount of ceramide was determined by using, as a standard, ceramide generated from cerebroside B by imiglucerase (manufactured by Sanofi S. A.), human-derived glucocerebrosidase. […] Glucocerebrosidase activity per mL of the enzyme solution was calculated when the amount of the enzyme that generated 1 μmol of ceramide for 1 minute in the enzymatic reaction solution was defined as 1 unit (U).
RGC1 obtained in Example 2 and imiglucerase were each incubated at pH 5 simulating lysosome (50 mM acetate buffer solution (pH 5.0) containing 0.1% Triton X-100 and 0.05% sodium cholate) at 37° C. for 6 to 106 hours or at pH 7 simulating cytoplasm (50 mM potassium phosphate buffer solution (pH 7.0) containing 0.1% Triton X-100 and 0.05% sodium cholate) at 37° C. for 4 to 48 hours. […] This test was conducted three times, and an average value was determined therefrom. […]

Data set [2] is described as follows: Optimum temperature for glucocerebrosidase activity (Examples 5, 12, 20). The following applies: 100 μM cerebroside B, pH 5.5, 15 minutes at each temperature, average of three tests. Format: biochemical. The protocol: The glucocerebrosidase activity of the fraction was measured as follows: a predetermined amount of sample was added to a 50 mM acetate buffer solution (pH 5.5) containing 100 μM glucosylceramide (cerebroside B), 0.1% Tween 20, and 0.05% sodium cholate, and incubated at 37° C. for 15 minutes. Subsequently, a 4-fold amount of ethanol was added to the obtained reaction solution, mixed therewith, and then centrifuged at 15000 rpm for 20 minutes. The centrifuged supernatant was subjected to high-performance liquid chromatography analysis. In the high-performance liquid chromatography analysis, the sample was injected to TSKgel ODS-120T column (4.6 mm×30 cm), and a solvent having an ethanol concentration of 83% was flowed at a flow rate of 0.8 mL/min, followed by detection in a UV detector (ultraviolet absorption wavelength: 215 nm) to thereby measure the amount of ceramide newly generated through enzymatic reaction. The amount of ceramide was determined by using, as a standard, ceramide generated from cerebroside B by imiglucerase (manufactured by Sanofi S. A.), human-derived glucocerebrosidase. The molecular weight of the generated ceramide was examined by negative LC-MS (manufactured by Agilent Technologies, Inc.) to thereby confirm that it was ceramide generated from cerebroside B (ESI-MS m/z: 564.5[M-H]^−). Glucocerebrosidase activity per mL of the enzyme solution was calculated when the amount of the enzyme that generated 1 μmol of ceramide for 1 minute in the enzymatic reaction solution was defined as 1 unit (U).
RGC1 obtained in Example 2 and imiglucerase were each added to a 50 mM acetate buffer solution (pH 5.5) containing 100 μM glucosylceramide (cerebroside B), 0.1% Tween 20, and 0.05% sodium cholate, and incubated at each temperature for 15 minutes. Subsequently, a 4-fold amount of ethanol was added to the obtained reaction solution, mixed therewith, and then centrifuged under a condition of 15000 rpm for 20 minutes. The supernatant was subjected to high-performance liquid chromatography analysis to measure the amount of ceramide generated through enzymatic reaction. The high-performance liquid chromatography analysis was carried out in the same manner as in Example 2. The amount of ceramide and enzymatic activity were also calculated in the same manner as in Example 2. A temperature that attained the highest glucocerebrosidase activity was regarded as the optimum temperature. This test was conducted three times, and an average value was determined therefrom.
The optimum temperatures for the glucocerebrosidase activity of SGC1 obtained in Example 11 and imiglucerase were confirmed by the same method as in Example 5.
Enzyme extracts derived from various plants which were obtained in accordance with Example 19, the purified rice-derived RGC1 mentioned above and the purified soybean-derived SGC1 mentioned above were each added to a 50 mM sodium acetate buffer solution (pH 5.5) containing 100 μM glucosylceramide (cerebroside B), 0.1% Tween 20, and 0.05% sodium cholate, and incubated at each temperature for 15 minutes. Subsequently, a 4-fold amount of ethanol was added to the obtained reaction solution, mixed therewith, and then centrifuged at 15000 rpm for 20 minutes. The supernatant was subjected to high-performance liquid chromatography analysis to measure the amount of ceramide generated through enzymatic reaction. The high-performance liquid chromatography analysis was carried out in the same manner as in Example 5. The amount of ceramide and enzymatic activity were also calculated in the same manner as in Example 5. As a result, a temperature that attained the highest glucocerebrosidase activity was regarded as the optimum temperature. This test was conducted three times, and an average value was determined therefrom.

B1: RGC1: rice-derived glucocerebrosidase purified from rice stems; identical to Os3BGlu6, belongs to GH1; SEQ ID NO: 1 (protein)
chain: MGRIKSSSGRCSTARLEAVAVLVVVFGVASSSLRGCIAQQSGGGLTRGSFPEGFVFGTASAAYQYEGAVKEDGRGQTIWDTFAHTFGKITDFSNADVAVDQYHRFEEDIQLMADMGMDAYRFSIAWSRIYPNGVGQVNQAGIDHYNKLIDALLAKGIQPYVTLYHWDLPQALEDKYKGWLDRQIVDDFAAYAETCFREFGDRVKHWITLNEPHTVAIQGYDAGLQAPGRCSVLLHLYCKAGNSGTEPYVVAHHFILAHAAAASIYRTKYKATQNGQLGIAFDVMWFEPMSNTTIDIEAAKRAQEFQLGWFADPFFFGDYPATMRARVGERLPRFTADEAAVVKGALDFVGINHYTTYYTRHNNTNIIGTLLNNTLADTGTVSLPFKNGKPIGDRANSIWLYIVPRGMRSLMNYVKERYNSPPVYITENGMDDSNNPFISIKDALKDSKRIKYHNDYLTNLAASIKEDGCDVRGYFAWSLLDNWEWAAGYSSRFGLYFVDYKDNLKRYPKNSVQWFKALLKT
modifications: Glycine max (L.) Merr. Enrei
Turning to B1, in data set [1], the “stability (relative residual activity) compared with imiglucerase” value is “evidently superior in stability to imiglucerase”. The “Optimum temperature (° C.)” value in data set [2] (Example 5) and in data set [2] (Example 20) was 54.0 °C throughout.
